{"source": "patent US20060223140", "key": {"[1]": {"biological_target": "T1, peptide-T", "T1 chain": "ASTTTNYT"}, "[2]": {"biological_target": "T2, PAMP-12", "T2 chain": "FRKKWNKWALSR"}, "[3]": {"biological_target": "bradykinin"}}}
{"protein": "recombinant endo-α-N-acetylgalactosaminidase derived from Bifidobacterium longum JCM1217 (protein) MKKKKTISAALATALALTCMGSGGGTAFAVPLSDADLQTLASQIQQINDTSDSATASETPSAQADAVEGWTIDSNIAQGGEILEMANGWLHLKSTASNGNAAANPSSSNNWPAVAVWGTDYDFSKAGSFHATIKSPQEGSANRFGFYLGYNDPGSGLFIGYDSGGWFWQTYTGGGSGSWYSGARIAAPSANEEHDIRVSWTDAKVATLTVDGQKAFDVDYSAMTNLSNKLAIKAGSWKELNEVTDVYIKDFPEVVEAAKHAVSGKVVDAGGAAIEGATVRLDKTKVKTGADGTFSFADIEEGEHTLSIAKEGYEDVSQQVTVSGADLAIDPITLNKTVQVASETLKTKKMEVQIKKNFPSVLQYTMTDGKVMYGQSKDVRTVEINGTNIELGDDDVTFKKVSDTEATYTLKVKDEAKKIDAVITVQITVKANQLHLNVTKIKNNLSEGIPEGNGVEENAIQTLSFPNQSLVSVRSSQENAQFTGARMSSNTQKPGDTNFAVTEDTNVTDSDYTYGFISGAGLSAGLWSNSEHDGTYVAAPVRGGSQNTRVYATTQQTGDATSLGLASAPWYYHRTVTDSKGKKYTVAETALPQMAVAIAGDENEDGAVNWQDGAIAYRDIMNNPYKSEEVPELVAWRIAMNFGSQAQNPFLTTLDNVKKVALNTDGLGQSVLLKGYGNEGHDSGHPDYGDIGQRLGGADDMNTMMEEGSKYGARFGVHVNASEMYPEAKAFSEDMVRRNSAGGLSYGWNWLDQGVGIDGIYDLASGSRVSRFADLSKEVGDNMDFIYLDVWGNLTSSGSEDSWETRKMSKMINDNGWRMTTEWGSGNEYDSTFQHWAADLTYGGYTSKGENSEVMRFLRNHQKDSWVGDYPQYGGAANAPLLGGYNMKDFEGWQGRNDYAAYIKNLYTHDVSTKFIQHFKVTRWVNNPLLTADNGNAAAVSDPNTNNGNEQITLKDSNGNVVVVSRGSNDTSSAAYRQRTITFNGVKVASGVVSAGDGSATGDESYLLPWMWDSFTGKLVKDSEQKLYHWNTKGGTTTWTLPDSWKNLSSVKVYQLTDQGKTNEQTVAVSGGKVTLTADAETPYVVYKGEAKQIQVNWSEGMHVVDAGFNGGSNTLTDNWTVSGSGKAEVEGDNNAMLRLTGKVDVSQRLTDLKAGQKYALYVGVDNRSTGDASVTVTSGGKVLATNSTGKSIAKNYIKAYGHNTNSNTENGSSYFQNMYVFFTAPENGDATVTLSHKSTDGAHTYFDDVRIVENQYSGITYEKDGTLKSLTNGFENNAQGIWPFVVSGSEGVEDNRIHLSELHAPFTRAGWDVKKMDDVLDGTWSVKVNGLTQKGTLVYQTIPQNVKFEAGAKYKVSFDYQSGSDDIYAIAVGQGEYSAGSVKLTNLKKALGETGKAEFELTGGVNGDSWFGIYSTATAPDLQGSTGNAQDFGGYKDFVLDNLKIERIESQTRTKAEAQDKVKEIRGKYDSKRAELSDAAWQQYQDTLVKARVLINKNGATAEDFTKAYDILVALDEYMKTAPGNESSDKYDVAADGSDELGGYTVATGSEEPTAGLPSEGPADLAQDGNDSTHWHTSWSENAVGNGTAWYQFNLNEPTTINGLRYLPRSGGMNANGKIKGYKITLTLADGTTKDVVTDAEFSTTTMWQKASFDAVENVTAVRSTVLSSAGQSDSQANKFASAAELRLTTDREVEEETVAPDKTDLNDTIAKANGLKESDYTAESWTALVKAREAAQAVADNDKATAYDVALALTNLESAIAGLEKTGEEPGPGPVEVNKTDLQTAVNKASKLEKADYTTNSWEAFAEALKAAQQVLDNKNATQQDVDTALSALQDAISKLEAATEPKPNPEPGVVDKAALNATINKAAAINLGLYTDDSANALRAALKKAREVSDNSNATQKQVDAAREALEKAIAALVKRPAAKGDGNVVSNTGSDVATIALAGLLLAGAGAAIAYRRNREQL", "values": [{"measurement": "transglycosylation activity (HPLC product peak; confirmed by MALDI-TOF-MS)", "setting": "[1]", "value": "it was demonstrated that the sugar chain was transferred to each peptide because peaks of transglycosylation products (\"product\" portion in each Figure) were observed"}, {"measurement": "transglycosylation activity (HPLC product peak; confirmed by MALDI-TOF-MS)", "setting": "[2]", "value": "it was demonstrated that the sugar chain was transferred to each peptide because peaks of transglycosylation products (\"product\" portion in each Figure) were observed"}, {"measurement": "transglycosylation activity (HPLC product peak; confirmed by MALDI-TOF-MS)", "setting": "[3]", "value": "it was demonstrated that the sugar chain was transferred to each peptide because peaks of transglycosylation products (\"product\" portion in each Figure) were observed"}]}
